# Positions count from the first letter of the chain named. Names may count otherwise.
# T1: ScIGPs (ScTrpC without anthranilate synthase II domain) (Saccharomyces cerevisiae, UniProt P00937)
# T1 construct: ScIGPs=ScTrpC without anthranilate synthase II domain
# T1 sequence (P00937 215-484 limits assumed): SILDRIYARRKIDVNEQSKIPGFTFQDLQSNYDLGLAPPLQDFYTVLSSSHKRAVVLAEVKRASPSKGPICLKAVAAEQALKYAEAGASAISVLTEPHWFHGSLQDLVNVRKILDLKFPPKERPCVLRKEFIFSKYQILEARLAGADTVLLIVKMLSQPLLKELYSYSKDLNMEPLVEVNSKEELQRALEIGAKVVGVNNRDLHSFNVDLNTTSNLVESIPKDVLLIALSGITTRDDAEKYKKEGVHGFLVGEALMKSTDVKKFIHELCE
# T2: ScTrpC (Saccharomyces cerevisiae, UniProt P00937)
# T2 sequence (P00937 1-484): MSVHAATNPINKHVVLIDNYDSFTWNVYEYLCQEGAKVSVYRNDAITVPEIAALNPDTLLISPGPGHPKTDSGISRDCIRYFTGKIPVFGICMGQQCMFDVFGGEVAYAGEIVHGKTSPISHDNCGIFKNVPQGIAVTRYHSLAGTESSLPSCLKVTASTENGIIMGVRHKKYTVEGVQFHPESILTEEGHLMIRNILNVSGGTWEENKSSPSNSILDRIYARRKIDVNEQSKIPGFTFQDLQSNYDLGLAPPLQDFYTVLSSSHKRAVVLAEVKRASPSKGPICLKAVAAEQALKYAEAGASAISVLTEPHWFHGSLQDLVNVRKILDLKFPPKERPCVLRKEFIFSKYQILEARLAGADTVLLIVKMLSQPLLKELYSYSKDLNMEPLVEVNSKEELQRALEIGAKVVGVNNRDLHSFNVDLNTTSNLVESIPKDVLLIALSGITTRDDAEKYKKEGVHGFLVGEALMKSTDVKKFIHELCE
# B1: QVFQ: E. coli TrpC variant S58Q, P59V, S60F, K61Q, SEQ ID NO: 30 (protein)
# chain: MQTVLAKIVADKAIWVEARKQQQPLASFQNEVQPSTRHFYDALQGARTAFILECKKAQVFQGVIRDDFDPARIAAIYKHYASAISVLTDEKYFQGSFNFLPIVSQIAPQPILCKDFIIDPYQIYLARYYQADACLLMLSVLDDDQYRQLAAVAHSLEMGVLTEVSNEEEQERAIALGAKVVGINNRDLRDLSIDLNRTRELAPKLGHNVTVISESGINTYAQVRELSHFANGFLIGSALMAHDDLHAAVRRVLLGENKVCGLTRGQDAKAAYDAGAIYGGLIFVATSPRCVNVEQAQEVMAAAPLQYVGVFRNHDIADVVDKAKVLSLAAVQLHGNEEQLYIDTLREALPAHVAIWKALSVGETLPAREFQHVDKYVLDNGQGGSGQRFDWSLLNGQSLGNVLLAGGLGADNCVEAAQTGCAGLDFNSAVESQPGIKDARLLASVFQTLRAY
# modifications: EcTrpC S58Q P59V S60F K61Q
# B2: S60G (protein)
# chain: B1 chain with Q58S, V59P, F60G, Q61K
# modifications: EcTrpC S60G
# B3: S60A: E. coli IGPs mutant S60A, SEQ ID NO: 3 (protein)
# chain: B1 chain with Q58S, V59P, F60A, Q61K
# modifications: EcTrpC S60A
# B4: L188F (protein)
# chain: B1 chain with Q58S, V59P, F60S, Q61K, L188F
# modifications: EcTrpC L188F
# B5: I8V (protein)
# chain: B1 chain with I8V, Q58S, V59P, F60S, Q61K
# modifications: EcTrpC I8V
# B6: 6His-TrpC: E. coli TrpC, two-domain form, 6His-tag at the N-terminus (protein, UniProt P00909 1-453, looked up)
# Tryptophan biosynthesis …: MMQTVLAKIVADKAIWVEARKQQQPLASFQNEVQPSTRHFYDALQGARTAFILECKKASPSKGVIRDDFDPARIAAIYKHYASAISVLTDEKYFQGSFNFLPIVSQIAPQPILCKDFIIDPYQIYLARYYQADACLLMLSVLDDDQYRQLAAVAHSLEMGVLTEVSNEEEQERAIALGAKVVGINNRDLRDLSIDLNRTRELAPKLGHNVTVISESGINTYAQVRELSHFANGFLIGSALMAHDDLHAAVRRVLLGENKVCGLTRGQDAKAAYDAGAIYGGLIFVATSPRCVNVEQAQEVMAAAPLQYVGVFRNHDIADVVDKAKVLSLAAVQLHGNEEQLYIDTLREALPAHVAIWKALSVGETLPAREFQHVDKYVLDNGQGGSGQRFDWSLLNGQSLGNVLLAGGLGADNCVEAAQTGCAGLDFNSAVESQPGIKDARLLASVFQTLRAY
# modifications: N-terminal His6 tag
# notes: E. coli TrpC, two-domain form, 6His-tag at the N-terminus
# Key:
# [1] = molecular target: T1, ScIGPs (ScTrpC without anthranilate synthase II domain); experiment: Effect of anthranilate on IGPs activity; assay type: biochemical; details: anthranilate synthase II domain removed, FIG. 8
# Description: FIG. 8. Effects of anthranilate on the activities of ScTrpC and ScIGPs (ScIGPs=ScTrpC without anthranilate synthase II domain).
# [2] = molecular target: T3, eIGPs-6His (Escherichia coli, UniProt P00909); experiment: IGPs enzyme assay, inhibition by anthranilate; assay type: biochemical
# T3 construct: made in house; host or cells: E. coli BL21
# Method: (§1) The activity of IGPs from E. coli was measured by monitoring the formation of IGP via absorbance at 278 nm with a molar extinction coefficient value of 5500 M^−1 cm^−1 [24]. Assays were performed in 50 mM HEPPS pH 7.5, 4 mM EDTA at 30° C. with 20-25 μg/mL of purified enzymes in cuvettes. To investigate the effect of anthranilate on the activity of IGPs, the activities were measured in the presence of different concentrations of anthranilate. Unless stated otherwise, the reactions were started by adding 180 μM of the substrate CdRP. The synthesis of CdRP was performed by following the improved method reported by Kirschner et al.. The concentration of the synthesized CdRP in the stock solution was determined by measuring the concentrations of the product IGP with completely converted reactions.
# To elucidate the effect of anthranilate on the enzyme activity of eIGPs, the catalytic activity of the isolated eIGPs (eIGPs-6His) was examined in the presence of different concentrations of anthranilate. […] The inhibition constant (IC50, 50% inhibitory concentration) of eIGPs-6His was measured to be about 0.70 mM.
# [3] = molecular target: T4, 6His-TrpC (Escherichia coli, UniProt P00909); experiment: IGPs enzyme assay, inhibition by anthranilate; assay type: biochemical
# T4 construct: inserting the PCR products amplified from E. coli S028 with primers EcoRI-6H-trpC and trpC-XbaI; made in house; host or cells: E. coli Top10
# Method: (§3) The activity of IGPs from E. coli was measured by monitoring the formation of IGP via absorbance at 278 nm [23] with a molar extinction coefficient value of 5500 M^−1 cm^−1 [24]. Assays were performed in 50 mM HEPPS pH 7.5, 4 mM EDTA at 30° C. with 20-25 μg/mL of purified enzymes in cuvettes. To investigate the effect of anthranilate on the activity of IGPs, the activities were measured in the presence of different concentrations of anthranilate. Unless stated otherwise, the reactions were started by adding 180 μM of the substrate CdRP. […] The concentration of the synthesized CdRP in the stock solution was determined by measuring the concentrations of the product IGP with completely converted reactions.
# In order to figure out whether the PRAi domain has an influence on the inhibition resistance of eIGPs, the effect of anthranilate on the activity of IGPs in the form of eIGPs-PRAi (6His-TrpC) was tested.
# [4] = molecular target: T5, 6His-eIGPs (Escherichia coli, UniProt P00909); experiment: IGPs enzyme assay, inhibition by anthranilate; assay type: biochemical; details: isolated IGPs domain, N-terminal His-tag
# T5 construct: made in house; host or cells: E. coli Top10
# Method: as §3
# [5] = molecular target: T6, eIGPs mutant S60G (Escherichia coli, UniProt P00909, S61G); experiment: IGPs enzyme assay, inhibition by anthranilate; assay type: biochemical; details: read-out: activity of mutant S60G inhibited
# T6 construct: made in house; host or cells: E. coli BL21
# T6 sequence (P00909 2-260 S61G): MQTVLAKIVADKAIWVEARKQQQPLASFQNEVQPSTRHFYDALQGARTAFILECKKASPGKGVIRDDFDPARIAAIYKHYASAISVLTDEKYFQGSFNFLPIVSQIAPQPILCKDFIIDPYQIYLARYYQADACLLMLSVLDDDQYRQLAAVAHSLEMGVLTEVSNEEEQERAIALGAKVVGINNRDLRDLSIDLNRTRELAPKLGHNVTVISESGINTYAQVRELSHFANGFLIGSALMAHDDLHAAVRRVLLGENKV
# Method: as §1
# (§2) […]. Therefore, the effect of anthranilate on the activity of this mutants was not investigated. […] […].
# [6] = molecular target: T7, eIGPs mutant S60A (Escherichia coli, UniProt P00909, S61A); experiment: IGPs enzyme assay, inhibition by anthranilate; assay type: biochemical
# T7 construct: made in house; host or cells: E. coli BL21
# T7 sequence (P00909 2-260 S61A): as the sequence (P00909 2-260 S61G) above, with G60A counted along it
# Method: as §1, §2
# [7] = molecular target: T2, ScTrpC; experiment: Effect of anthranilate on IGPs activity of TrpC; assay type: biochemical; details: FIG. 7
# [8] = molecular target: AgTrpC (Aspergillus niger, UniProt P05328); experiment: Effect of anthranilate on IGPs activity of TrpC; assay type: biochemical; details: FIG. 7
# AgTrpC, sequence (P05328 other isoform, or with tags, fused parts or gaps with the stated changes): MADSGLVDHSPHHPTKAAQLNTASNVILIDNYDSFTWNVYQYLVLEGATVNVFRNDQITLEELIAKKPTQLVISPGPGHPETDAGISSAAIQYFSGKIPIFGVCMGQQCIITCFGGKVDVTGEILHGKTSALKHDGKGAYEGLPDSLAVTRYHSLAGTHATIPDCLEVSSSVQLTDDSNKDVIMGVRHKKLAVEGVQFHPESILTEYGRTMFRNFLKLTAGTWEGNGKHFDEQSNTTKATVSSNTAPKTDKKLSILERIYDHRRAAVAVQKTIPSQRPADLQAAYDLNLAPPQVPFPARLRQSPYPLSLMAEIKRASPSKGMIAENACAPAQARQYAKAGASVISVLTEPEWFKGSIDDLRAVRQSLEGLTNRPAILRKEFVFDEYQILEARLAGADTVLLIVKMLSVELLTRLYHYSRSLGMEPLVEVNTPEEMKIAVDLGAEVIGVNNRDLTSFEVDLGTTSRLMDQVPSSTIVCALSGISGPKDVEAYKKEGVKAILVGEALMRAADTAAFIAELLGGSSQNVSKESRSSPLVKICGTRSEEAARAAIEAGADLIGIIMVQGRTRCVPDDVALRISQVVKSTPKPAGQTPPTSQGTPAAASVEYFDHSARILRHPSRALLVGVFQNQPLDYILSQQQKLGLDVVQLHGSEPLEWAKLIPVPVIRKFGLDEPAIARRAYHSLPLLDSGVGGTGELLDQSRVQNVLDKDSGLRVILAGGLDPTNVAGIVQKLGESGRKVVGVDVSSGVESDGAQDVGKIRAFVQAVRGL
# [9] = Specific activities and kinetic constants of TrpC WT and TrpC QVFQ; assay type: biochemical, Escherichia coli
# Method: as §1
# [10] = Enzyme assay of wild-type and mutant eIGPs (specific activity); assay type: biochemical, Escherichia coli; details: for activity relative to the wild-type enzyme: 18 μM CdRP, absence of anthranilate; for anthranilate resistance / sensitivity compared with wild-type eIGPs (in words): FIG. 3; for specific activity compared with wild type in the presence of anthranilate: more than 0.1 mM anthranilate, 180 μM CdRP
# Method: as §1, §2
# [11] = two-domain form, reference [31]; cited from earlier work
# [12] = SDS-PAGE analysis, data not shown
# [13] = Michaelis constants of 6His-TrpC without and with anthranilate; assay type: biochemical, Escherichia coli
# Method: as §1
# To identify the mechanism of the inhibition of eIGPs by anthranilate, the effect of the inhibitor on the Michaelis constants of eIGPs was investigated with 6His-TrpC. Various concentration of CdRP (from 2.6 to 260 μM) were used when the reactions carried out in the absence of anthranilate and in the presence of 0.5 mM anthranilate, respectively. […] It is somewhat consistent with the fact that anthranilate has a distinguished binding site from the catalytic site based on the crystal structure analysis.
molecule,measurement,setting,value
"Nc1ccccc1C(=O)O [anthranilate, 2-Aminobenzoic acid]",regulation of ScIGPs activity by anthranilate,[1],no activation was observed
same,IC50,"[2]; 180 μM CdRP, 30° C., pH 7.5, read-out: inhibition constant (IC50, 50% inhibitory concentration) of eIGPs-6His",~700 µM
same,inhibition at 500 µM,"[2]; 0.5 mM anthranilate, read-out: activity of eIGPs inhibited",46%
same,mechanism of inhibition,"[3]; Lineweaver-Burk, CdRP 2.6 to 260 μM, 0 vs 0.5 mM anthranilate",noncompetitive inhibitor
same,IC50,[3]; eIGPs-PRAi two-domain form,~1300 µM
same,IC50,[4],~400 µM
same,inhibition at 2000 µM,[5],20%
same,IC50,[6],~2000 µM
same,inhibition at 2000 µM,[6]; read-out: activity of mutant S60A inhibited,46%
same,regulation of ScTrpC activity by anthranilate,[7],activated
same,regulation of AgTrpC activity by anthranilate,[8],activated
B1,Specific activities,[9]; Anthranilate 0 mM,1.886 ± 0.067 µmol/min/mg
same,Specific activities,[9]; Anthranilate 0.5 mM,1.124 ± 0.074 µmol/min/mg
same,Specific activities,[9]; Anthranilate 1 mM,1.152 ± 0.089 µmol/min/mg
same,Specific activities,[9]; Anthranilate 2 mM,0.906 ± 0.022 µmol/min/mg
same,Specific activities,[9]; Anthranilate 3 mM,0.866 ± 0.016 µmol/min/mg
same,Km,"[9]; apparent, substrate CdRP",6.14 ± 0.04 µM
same,kcat,"[9]; apparent, substrate CdRP",0.027 ± 0.001 s⁻¹
same,inhibition by anthranilate compared to wildtype TrpC (in words),"[9]; increasing anthranilate concentrations, FIG. 12",significantly less inhibited by anthranilate
B2,activity relative to the wild-type enzyme,[10],52%
same,Specific activity in the absence of anthranilate,[10]; CdRP 18 μM,1.13 ± 0.02 µmol/min/mg
same,Specific activity in the absence of anthranilate,[10]; CdRP 60 μM,1.75 ± 0.03 µmol/min/mg
same,Specific activity in the absence of anthranilate,[10]; CdRP 180 μM,1.92 ± 0.02 µmol/min/mg
same,anthranilate resistance / sensitivity compared with wild-type eIGPs (in words),[10],significantly improved
same,"Km ranking among WT, S60A, S60G",[10]; from rates of increased absorbance,largest Km
same,specific activity compared with wild type in the presence of anthranilate,[10],higher than that of the wild type
B3,efficiency (Kcat/Km) relative to the wild-type enzyme,[11],about 30%
same,activity relative to the wild-type enzyme,[10],74%
same,Specific activity in the absence of anthranilate,[10]; CdRP 18 μM,1.60 ± 0.03 µmol/min/mg
same,Specific activity in the absence of anthranilate,[10]; CdRP 60 μM,2.05 ± 0.06 µmol/min/mg
same,Specific activity in the absence of anthranilate,[10]; CdRP 180 μM,2.13 ± 0.01 µmol/min/mg
same,anthranilate resistance / sensitivity compared with wild-type eIGPs (in words),[10],significantly improved
same,specific activity compared with wild type in the presence of anthranilate,[10],higher than that of the wild type
B4,Specific activity in the absence of anthranilate,[10]; CdRP 180 μM,1.04 ± 0.02 µmol/min/mg
same,anthranilate resistance / sensitivity compared with wild-type eIGPs (in words),[10],slightly increased
B5,solubility of the expressed protein (in words),[12],poorer solubility than the wild-type eIGPs
same,Specific activity in the absence of anthranilate,[10]; CdRP 180 μM,0.90 ± 0.03 µmol/min/mg
same,anthranilate resistance / sensitivity compared with wild-type eIGPs (in words),[10],slightly increased
B6,Km,[13]; 0.5 mM anthranilate,1.53 µM
same,Vmax,[13]; 0.5 mM anthranilate,2.63 µmol/min/mg
same,Km,[13]; no anthranilate,1.57 µM
same,Vmax,[13]; no anthranilate,3.64 µmol/min/mg

# From patent US10947523B2, “Biotechnological production of L-tryptophan” (Technische Universitaet Hamburg, priority 2017, dated 2021)
